The values that follow come from patent US20090291879A1 (published 2009).

Test [1] has as its target T1, Integrin α2β1 on human chondrosarcoma cells (K9, K105) (human, UniProt P17301 30-1181; P05556 21-798).
T1 construct: whole, on cells; The cells are not engineered; also called integrin α2β1 receptor; β1 integrin
As to the kind of experiment: adhesion of K9 cells to coated protein, 1 hour, N-acetylglucosaminidase read-out; receptor as attributed in paragraph 181. How it is done: To test cell binding, the chondrosarcoma cells or bovine chondrocytes were suspended in PBS containing 0.1% BSA, 25 U/ml collagenase and added to the wells (50,000/well), in the absence or presence of various peptide pools or the synthetic peptides (200, 100, 50, 25, 12.5 μg/ml). Non-adherent cells were removed after 1 hour and adhesion was determined by measuring lysosomal N-acetylglucosaminidase (12). Adhesion and spreading was visualized by light microscopy. In the time studies, k105 cells were allowed to adhere for 30 minutes, unbound cells were removed and medium without serum supplemented with or without peptides (250 μg/ml), β1 integrin antibody (clone P4C10, Gibco BRL), EDTA (5 mM) was added. Cell morphology was visualized by light microscopy after 1, 3 and 20 hours.
48-well tissue culture dishes were coated with 5 μg/ml collagen type II, tissue extracted bovine chondroadherin, human chondroadherin expressed in EBNA cells and human chondroadherin expressed in E. coli and blocked for non-specific binding with BSA. The cells were allowed to adhere for 1 hour at 37° C. Nonadherent cells were removed by washing and adhesion was determined by analyzing lysosomal N-acetylglucosaminidase. Adhesion is expressed in number of cells, 50,000 cells/well were seeded.

The target in test [2] is T1, Integrin α2β1 on human chondrosarcoma …. In words: adhesion of k105 cells to coated peptide, light microscopy; receptor as attributed in paragraph 163 and paragraph 181.

T1 sequence (P17301 30-1181, chain 1 of 2): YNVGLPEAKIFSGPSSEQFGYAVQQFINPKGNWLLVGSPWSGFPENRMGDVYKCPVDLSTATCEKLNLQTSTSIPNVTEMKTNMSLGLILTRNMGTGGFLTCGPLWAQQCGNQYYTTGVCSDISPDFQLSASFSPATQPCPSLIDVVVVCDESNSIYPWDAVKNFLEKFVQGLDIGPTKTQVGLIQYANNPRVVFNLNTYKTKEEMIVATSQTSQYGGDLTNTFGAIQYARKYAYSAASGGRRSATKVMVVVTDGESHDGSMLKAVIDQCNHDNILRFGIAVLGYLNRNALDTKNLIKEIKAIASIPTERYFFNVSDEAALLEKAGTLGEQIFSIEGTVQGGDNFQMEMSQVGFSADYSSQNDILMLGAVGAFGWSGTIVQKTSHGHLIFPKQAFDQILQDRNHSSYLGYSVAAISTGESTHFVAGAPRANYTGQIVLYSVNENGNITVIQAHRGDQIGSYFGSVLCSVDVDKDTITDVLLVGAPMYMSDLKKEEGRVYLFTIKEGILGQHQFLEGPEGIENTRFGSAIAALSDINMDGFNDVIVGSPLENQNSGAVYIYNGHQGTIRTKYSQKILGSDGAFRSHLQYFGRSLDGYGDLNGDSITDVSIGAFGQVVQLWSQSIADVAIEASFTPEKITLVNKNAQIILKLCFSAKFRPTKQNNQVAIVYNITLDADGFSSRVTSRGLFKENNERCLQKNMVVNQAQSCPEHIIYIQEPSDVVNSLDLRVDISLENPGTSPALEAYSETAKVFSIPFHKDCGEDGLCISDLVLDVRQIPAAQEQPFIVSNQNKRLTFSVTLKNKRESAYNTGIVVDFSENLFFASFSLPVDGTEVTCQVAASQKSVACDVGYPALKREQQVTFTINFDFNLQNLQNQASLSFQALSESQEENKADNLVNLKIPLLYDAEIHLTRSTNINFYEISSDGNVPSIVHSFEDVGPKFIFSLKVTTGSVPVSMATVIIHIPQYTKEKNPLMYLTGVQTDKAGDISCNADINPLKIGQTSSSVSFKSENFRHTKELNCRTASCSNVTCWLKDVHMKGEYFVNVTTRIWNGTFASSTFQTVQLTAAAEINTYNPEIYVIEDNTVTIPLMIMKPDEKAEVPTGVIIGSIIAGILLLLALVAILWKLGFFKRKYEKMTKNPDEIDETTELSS
T1 sequence (P05556 21-798, chain 2 of 2): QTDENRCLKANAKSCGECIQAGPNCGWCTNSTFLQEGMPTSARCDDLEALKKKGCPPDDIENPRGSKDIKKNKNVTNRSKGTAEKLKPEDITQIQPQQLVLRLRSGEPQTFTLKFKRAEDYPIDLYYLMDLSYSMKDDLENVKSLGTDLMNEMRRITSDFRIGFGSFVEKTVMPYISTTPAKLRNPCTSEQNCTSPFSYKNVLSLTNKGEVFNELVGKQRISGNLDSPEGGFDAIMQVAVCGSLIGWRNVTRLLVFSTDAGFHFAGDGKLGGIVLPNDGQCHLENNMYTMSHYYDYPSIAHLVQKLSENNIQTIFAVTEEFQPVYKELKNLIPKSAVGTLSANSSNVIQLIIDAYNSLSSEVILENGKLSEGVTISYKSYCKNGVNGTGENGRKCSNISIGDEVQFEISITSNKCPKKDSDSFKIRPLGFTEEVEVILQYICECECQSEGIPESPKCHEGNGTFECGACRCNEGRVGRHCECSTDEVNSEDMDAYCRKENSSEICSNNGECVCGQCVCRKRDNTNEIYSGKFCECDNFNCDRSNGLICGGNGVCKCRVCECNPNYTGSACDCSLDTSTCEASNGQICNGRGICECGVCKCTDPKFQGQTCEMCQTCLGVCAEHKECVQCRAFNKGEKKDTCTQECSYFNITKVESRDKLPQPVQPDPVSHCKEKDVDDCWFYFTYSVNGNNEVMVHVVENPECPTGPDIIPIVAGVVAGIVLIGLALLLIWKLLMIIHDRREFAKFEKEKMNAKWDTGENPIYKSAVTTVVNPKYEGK

B1: Tissue extracted bovine chondroadherin (ligand, UniProt Q27972 25-361, looked up)
chain: CPQNCHCHSDLQHVICDKVGLQKIPKVSEKTKLLNLQRNNFPVLATNSFRAMPNLVSLHLQHCQIREVAAGAFRGLKQLIYLYLSHNDIRVLRAGAFDDLTELTYLYLDHNKVTELPRGLLSPLVNLFILQLNNNKIRELRSGAFQGAKDLRWLYLSENSLSSLQPGALDDVENLAKFYLDRNQLSSYPSAALSKLRVVEELKLSHNPLKSIPDNAFQSFGRYLETLWLDNTNLEKFSDGAFLGVTTLKHVHLENNRLHQLPSNFPFDSLETLTLTNNPWKCTCQLRGLRRWLEAKTSRPDATCASPAKFRGQHIRDTDAFRGCKFPTKRSKKAGRH
In the case of B1, the binding result in test [1] is listed as “binds”.

B2: Synthetic peptide CQLRGLRRWLEAK (12-mer chondroadherin peptide plus an N-terminal cysteine) (peptide)
peptide: CQLRGLRRWLEAK
notes: also called 12-mer peptide
As for B2, the binding result in test [2] is “binds”.
